Measured values reported in patent US20210147877A1.

Assays:
Test in all cases: cell-based or functional assay
[1] = molecular target: AAV2 vector (parental AAV2 capsid) (AAV serotype 2) (UniProt P03135)
[2] = molecular target: haploid virus AAV2/8 1:3 (AAV serotype 2; AAV serotype 8) (UniProt P03135)
[3] = molecular target: AAV8 vector (parental AAV8 capsid) (AAV serotype 8)
[4] = molecular target: haploid virus AAV2/8 3:1 (AAV serotype 2; AAV serotype 8) (UniProt P03135)
[5] = molecular target: haploid virus AAV2/8 1:1 (AAV serotype 2; AAV serotype 8) (UniProt P03135)

Substance	Neutralization antibody titer [1] [titer]	Neutralization antibody titer [2] [titer]	Neutralization antibody titer [3] [titer]	Neutralization antibody titer [4] [titer]	Neutralization antibody titer [5] [titer]
monoclonal antibody ADK8	< 2	1024	1024	512	512
monoclonal antibody A20	512	< 2	< 2	2048	32
